Measurements: publication PMC6779754

target: GST-Bsx (zebrafish) (UniProt Q6R3Q6); assay: EMSA; conditions: EMSA: DIG Gel Shift Kit (Roche) per manufacturer, 2.0 pmol GST-Bsx with 32 fmol DIG-oligonucleotide or 8 fmol DIG-147bp probe; buffer, pH and temperature not …
Sequence (Q6R3Q6 whole entry): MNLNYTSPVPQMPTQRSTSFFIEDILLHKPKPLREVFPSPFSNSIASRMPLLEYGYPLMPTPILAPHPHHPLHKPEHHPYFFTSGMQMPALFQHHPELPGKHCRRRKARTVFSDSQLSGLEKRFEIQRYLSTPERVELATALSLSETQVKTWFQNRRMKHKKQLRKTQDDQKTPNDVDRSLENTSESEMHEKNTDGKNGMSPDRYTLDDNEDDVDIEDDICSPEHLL

Sequence | binding
GATGGAGAAGTGGACGATCGGCACACCTCCGCAGATGAAGCCCGGAGAGCCGGCGCTGCGCTCTTATGTGAACCCCATGAGTCCAGATTAGGCATCGTACAGGAGTGAGTGGCCAGATTGGGGTCAGACAGGGGGATAATCCAGAGA (double strand) [147bp P3 mutant] | binds more weakly
GATGGAGAAGTGGACGATCGGCACACCTCCGCAGATGAAGCCCGGAGAGCCGGCGCTGCGCTCTTATGTGAACCCCATGAGTCCATCGTAGGCAGATTACAGGAGTGAGTGGCCAGATTGGGGTCAGACAGGGGGATAATCCAGAGA (double strand) [147bp P4 mutant] | binds
TCTCTGGATTATCCCCCTGTCTGACCCCAATCTGGCCACTCACTCCTGTAATCTGCCTAATCTGGACTCATGGGGTTCACATAAGAGCGCAGCGCCGGCTCTCCGGGCTTCATCTGCGGAGGTGTGCCGATCGTCCACTTCTCCATC (double strand) [wt147bp] | binds
